One molecule from patent publication US11911450B2, “Method for managing pain” (UNIVERSITY OF MIAMI, priority 2017, dated 2024) can be followed below.

The assay concerns intracellular calcium release in NBL cells. Kind of assay: ATP-stimulated calcium release in NBL cells (Fura2 imaging). The format is cell-based, human. As to conditions: 1 μM ATP, vs empty vector. The method, then:
Pharmacodynamics—Bioassay of Calcium Release: Fifteen mm glass coverslips (cat #72228 Electron Microscopy Sciences, Hatfield, PA) were coated with poly-D-Lysine (Sigma) followed by Laminin and 1×10^5 cells were seeded on each coverslip. Twenty-four hrs later, cells were transfected with AAV2-ITR, AAV2-V5-Car10, or AAV2-V5-CA10 vectors as previously described. In embodiments wherein AAV2 is not employed, other expression vectors (including viral vectors) are used. Fura-2AM (cat #F1221 ThermoFisher scientific, Waltham, MA) was dissolved in DMSO (50 μg in 50 μl) and 1% pluronic acid-127 (cat #P2443 Sigma, St Louis, MO) as the stock solution. Forty eight hrs after seeding, cells were loaded with 2 μM Fura-2AM dye for 45 min at room temperature in the dark in a standard Ca+2 buffer solution containing: 125 mM NaCl, 2 mM MgCl, 4.5 mM KCl, 10 glucose, 20 mM HEPES, 2 mM CaCl2, pH 7.4.25. Following dye loading, coverslips were washed with Ca^+2 buffer solution. […] Regions of interest over the field of view were selected and the mean pixels intensity at each frame was measured. Data was plotted as ratio fluorescence intensity versus time and subsequently converted to a relative scale. […]

B1: CA10: human carbonic anhydrase 10, overexpressed (V5-tagged) protein; SEQ ID NO: 9 (protein)
chain: MEIVWEVLFLLQANFIVCISAQQNSPKIHEGWWAYKEVVQGSFVPVPSFWGLVNSAWNLCSVGKRQSPVNIETSHMIFDPFLTPLRINTGGRKVSGTMYNTGRHVSLRLDKEHLVNISGGPMTYSHRLEEIRLHFGSEDSQGSEHLLNGQAFSGEVQLIHYNHELYTNVTEAAKSPNGLVVVSIFIKVSDSSNPFLNRMLNRDTITRITYKNDAYLLQGLNIEELYPETSSFITYDGSMTIPPCYETASWIIMNKPVYITRMQMHSLRLLSQNQPSQIFLSMSDNFRPVQPLNNRCIRTNINFSLQGKDCPNNRAQKLQYRVNEWLLK
modifications: V5 tag
Consider B1, for which the ATP-stimulated calcium release entry is listed as “inhibited”.
